Consider three compounds from paper PMC7354515 (Viruses, 2020).

Test [1] deals with CuV VP2 (CuV capsid, virus-like particle) (Cutavirus, UniProt A0A1B0VEZ1). Put plainly: glycan microarray (CFG v5.[…]), DyLight 488-labelled VLPs. The class given is binding. Conditions: immobilised glycan; PBS/Tween-20, room temperature; weak signal, authors advise caution.
For test [2], the target named is Tusavirus (TuV) VP2, assembled as virus-like particles (tusavirus (TuV)). Kind of test: cryo-EM structure.
The target in test [3] is Cutavirus (CuV) VP2, assembled as virus-like particles (cutavirus (CuV)). Put plainly: cryo-EM structure.

As to `CC(=O)N[C@H]1C(O)O[C@H](CO)[C@@H](O[C@@H]2O[C@H](CO)[C@H](O)[C@H](O)[C@H]2O)[C@@H]1O[C@@H]1O[C@@H](C)[C@@H](O)[C@@H](O)[C@@H]1O` (stereo partly drawn) [LeX], the “glycan microarray (CFG v5.2), DyLight 488-labelled VLPs” value in test [1] was “the minimal LeX motif was weakly bound by CuV”.

As a reminder, the stoichiometry N is a count of units in the complex or per binding partner. Compound “Tusavirus (TuV) VP2, assembled as virus-like particles (natural protein)” displayed a stoichiometry N in test [2] of 60.

On to “Cutavirus (CuV) VP2, assembled as virus-like particles (natural protein)”, for which the stoichiometry N in test [3] came to 60.
